Target: human CCR6 N-terminal extracellular domain Fc fusion protein NthCCR6-IgG4Fc (human)
Assay: SPR, Biacore T100; NthCCR6-IgG4Fc captured on anti-human IgG CM5 chip, antibody injected

human CCR6 N-terminal extracellular domain Fc fusion protein NthCCR6-IgG4Fc (human), sequence (chain, as listed by the source limits assumed): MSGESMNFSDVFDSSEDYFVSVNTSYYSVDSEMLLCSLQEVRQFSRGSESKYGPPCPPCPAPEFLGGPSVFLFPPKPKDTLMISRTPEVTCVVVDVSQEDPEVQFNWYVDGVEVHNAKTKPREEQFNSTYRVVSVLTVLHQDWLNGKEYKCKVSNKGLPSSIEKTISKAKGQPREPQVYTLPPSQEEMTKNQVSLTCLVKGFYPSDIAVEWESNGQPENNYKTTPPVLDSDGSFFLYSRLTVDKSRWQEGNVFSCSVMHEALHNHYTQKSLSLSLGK

Substance | Kd [nM]
commercially available anti-human CCR6 monoclonal antibody 11A9 (BD Pharmingen) | 20
commercially available anti-human CCR6 monoclonal antibody R6H1 (eBioscience) | 4.97
human CCR6 monoclonal antibody (clone 53103) (R&D Systems) | 70.9

Reference: patent WO2013005649A1
